Values belong to the binder of their own block, whether it stands above or below them.
T1: C-terminal MRG domain of Eaf3 (Eaf3^MRG, aa 218–401) (S. cerevisiae, UniProt Q12432 218-401)
T1 construct: Eaf3, S. cerevisiae, C-terminal MRG domain, aa 218–401
T1 sequence (looked up): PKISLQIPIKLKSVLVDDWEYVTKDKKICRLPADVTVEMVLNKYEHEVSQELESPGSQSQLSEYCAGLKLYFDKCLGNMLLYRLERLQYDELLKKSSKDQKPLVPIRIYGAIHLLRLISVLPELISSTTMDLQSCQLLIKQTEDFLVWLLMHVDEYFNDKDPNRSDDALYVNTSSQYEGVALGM

T2: Rco1^PHD1 alone (S. cerevisiae, Zn2+-bound PHD finger. Limits for PHD1 alone are not given; taken from the SID-deleted truncation Rco1 240-313 in the text, which covers PHD1 (zinc finger 260-309))
T2 chain: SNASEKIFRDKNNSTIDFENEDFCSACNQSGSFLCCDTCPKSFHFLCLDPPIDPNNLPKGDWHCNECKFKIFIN

B1: H3K4me0^1–12 peptide (peptide, UniProt P61830 2-13, looked up)
peptide: ARTKQTARKSTG
notes: Histone H3, residues 1–12, Lys4 unmodified; also called H3K4me0 peptide; unmodified H3K4
B2: Rco1^PHD1–SID (aa 240–376) (domain or fragment, S. cerevisiae, UniProt Q04779 240-376, looked up)
chain: SNASEKIFRDKNNSTIDFENEDFCSACNQSGSFLCCDTCPKSFHFLCLDPPIDPNNLPKGDWHCNECKFKIFINNSMATLKKIESNFIKQNNNVKIFAKLLFNIDSHNPKQFQLPNYIKETFPAVKTGSRGQYSDEN
notes: also called Rco1^SID1–PHD

Experiments:
[1] = target: T1, C-terminal MRG domain of Eaf3 …; assay: ITC; SUMO–Eaf7^108–143 or SUMO alone with Eaf3^MRG or the Eaf3^MRG–Rco1^PHD1–SID complex; conditions: both partners purified
Rco1^PHD1 alone = target: T2, Rco1^PHD1 alone; assay: ITC; H3 1–12 peptides with the Eaf3^MRG–Rco1^PHD1–SID complex or with Rco1^PHD1 alone; conditions: both partners purified
[2] = target: B2; assay: crystal structure; Eaf3^MRG–Rco1^PHD1–SID–H3K4me0^1–12 ternary complex, 1.60 Å; conditions: both partners purified
[3] = target: T1, C-terminal MRG domain of Eaf3 …; assay: pull-down; GST pull-down / affinity pull-down of Eaf3^MRG (wild type and mutants) with Rco1^PHD1–SID (wild type, mutants, truncation); which partner carried GST is not told

Kd [1]: 1 µM
Binder: EETLLELNNRIRVRKQDFTLPWEEYGELILENARKS (domain or fragment, S. cerevisiae, UniProt P53911 108-143, looked up) [SUMO–Eaf7^108–143]

Binder: B1
Kd (Rco1^PHD1 alone): 110 µM
binding result [2]: binds

Binder: B2
binding result [3]: binds
